{
  "source": "patent US11890364B2",
  "about": "“Composition for prevention or treatment of hair loss” (GOOD T CELLS, INC., priority 2017, dated 2024)",
  "biological_target": "T1, caspase-1 (Homo sapiens, UniProt P29466)",
  "T1 sequence (P29466 120-297 limits assumed)": "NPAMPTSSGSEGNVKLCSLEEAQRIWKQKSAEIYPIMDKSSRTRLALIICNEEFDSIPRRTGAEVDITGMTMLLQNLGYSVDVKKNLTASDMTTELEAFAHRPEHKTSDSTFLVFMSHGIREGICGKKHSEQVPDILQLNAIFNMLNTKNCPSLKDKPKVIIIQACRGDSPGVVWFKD",
  "T1 sequence (P29466 317-404 limits assumed)": "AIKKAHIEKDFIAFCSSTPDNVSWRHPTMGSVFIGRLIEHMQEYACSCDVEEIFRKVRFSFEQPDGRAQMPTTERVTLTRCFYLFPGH",
  "assay": "Caspase-1 treatment followed by HPLC analysis",
  "format": "biochemical",
  "details": "treated with caspase-1, HPLC analysis, FIG. 2",
  "protocol": "Compound E1 obtained in Example 1, Compound E7 obtained in Example 7, and finasteride were prepared. Then, these compounds were treated with caspase-1, and analyzed with high performance liquid chromatography (HPLC). The results are illustrated in FIGS. 2 and 3.",
  "note": "Ends that are not written are not given here.",
  "data": [
    {"substance": "Compound E7: finasteride linked via caspase-1 cleavage site (YVAD) and linkers to CTP+cysteine peptide (SEQ ID NO: 6) (YGRRARRRRRRC; also: finasteride linked via caspase-1 cleavage site (YVAD) and linkers, attachment site not given here)", "values": [
      {"measurement": "cleavage of the compound on treatment with caspase-1 (HPLC)", "result": "cleaved into two moieties, that is, finasteride and the protein transduction domain"}
    ]}
  ]
}
